Values of other authors as cited in article PMC4586255.
Where two headings read alike, the source gives them in different places.

How the values were obtained:
[1] = molecular target: PCNA (Homo sapiens) (UniProt P12004)
[2] = molecular target: PCNA (Homo sapiens) (UniProt P12004); remark: listed apart in the source

PCNA (Homo sapiens), sequence (P12004 whole entry): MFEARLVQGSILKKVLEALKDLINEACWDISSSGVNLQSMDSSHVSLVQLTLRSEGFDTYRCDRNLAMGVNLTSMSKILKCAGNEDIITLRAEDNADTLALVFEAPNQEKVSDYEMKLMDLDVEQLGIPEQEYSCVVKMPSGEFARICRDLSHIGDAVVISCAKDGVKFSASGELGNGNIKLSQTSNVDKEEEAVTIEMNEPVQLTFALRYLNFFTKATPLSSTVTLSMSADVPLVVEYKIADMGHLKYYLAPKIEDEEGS
FEN1 PIP-box peptide PIP-box peptide, sequence (P39748 331-350): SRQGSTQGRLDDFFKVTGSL
p21 PIP-box peptide PIP-box peptide, sequence (P38936 139-160): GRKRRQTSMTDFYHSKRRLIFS

Kd [1] [µM] | Kd [2] [µM] | Substance
59 | – | FEN1 PIP-box peptide PIP-box peptide (from UniProt P39748)
– | 0.082 | p21 PIP-box peptide PIP-box peptide (from UniProt P38936)
